Here are results for 1 molecule from patent publication JP2023550785A (dated 2023).

The test deals with T1, spike protein of alphacoronavirus 229E-CoV (HCoV-229E, UniProt P15423 16-1115).
T1 sequence: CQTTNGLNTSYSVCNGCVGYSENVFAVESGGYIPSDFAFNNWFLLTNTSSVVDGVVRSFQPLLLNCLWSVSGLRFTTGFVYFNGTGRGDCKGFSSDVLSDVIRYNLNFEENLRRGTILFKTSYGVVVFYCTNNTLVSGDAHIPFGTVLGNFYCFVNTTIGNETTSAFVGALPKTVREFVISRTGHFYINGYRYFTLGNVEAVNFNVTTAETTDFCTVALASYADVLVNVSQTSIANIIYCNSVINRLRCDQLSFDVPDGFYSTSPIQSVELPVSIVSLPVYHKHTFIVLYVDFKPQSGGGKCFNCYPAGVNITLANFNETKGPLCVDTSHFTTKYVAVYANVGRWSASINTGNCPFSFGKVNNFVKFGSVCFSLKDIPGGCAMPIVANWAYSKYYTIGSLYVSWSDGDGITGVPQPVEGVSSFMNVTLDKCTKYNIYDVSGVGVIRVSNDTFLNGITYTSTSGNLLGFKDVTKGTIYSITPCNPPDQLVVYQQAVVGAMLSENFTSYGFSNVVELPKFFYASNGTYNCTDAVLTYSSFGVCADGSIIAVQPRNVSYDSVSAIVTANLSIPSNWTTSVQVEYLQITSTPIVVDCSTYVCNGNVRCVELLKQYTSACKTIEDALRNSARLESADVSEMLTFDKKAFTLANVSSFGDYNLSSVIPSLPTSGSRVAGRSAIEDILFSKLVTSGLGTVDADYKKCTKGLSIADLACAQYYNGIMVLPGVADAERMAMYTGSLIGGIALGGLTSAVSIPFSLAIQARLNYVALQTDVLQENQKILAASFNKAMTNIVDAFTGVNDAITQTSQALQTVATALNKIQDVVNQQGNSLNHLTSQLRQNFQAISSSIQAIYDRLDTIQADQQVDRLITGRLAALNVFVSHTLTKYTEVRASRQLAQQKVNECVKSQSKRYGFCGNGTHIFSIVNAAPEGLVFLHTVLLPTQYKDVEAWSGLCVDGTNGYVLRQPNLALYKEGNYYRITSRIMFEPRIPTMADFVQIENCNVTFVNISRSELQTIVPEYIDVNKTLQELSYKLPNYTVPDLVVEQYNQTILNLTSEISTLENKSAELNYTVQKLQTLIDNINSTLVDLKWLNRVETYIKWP
The test can be described thus: ELISA on alphacoronavirus spike proteins (Fig 37). (In general: ELISA stands for enzyme-linked immunosorbent assay.)

B1: antibody S2P6 (antibody 420 1 1), human monoclonal antibody expressed as recombinant human IgG1 (antibody, V domains shown)
VH: EVQLVQSGAEVKKPGASVKVSCKASGYTFTSQYMHWVRQAPGQGLEWIGIINPSGVHTSYAQKFQGRVTLTRDTSTSTLYMELSSLRSEDTAVYYCARGSPKGAFDYWGQGTLVTVSS
VL: not shown
Turning to B1, the binding result is given as “no binding”.
